Data on two sequences can be found in US20220195418.

This series concerns the target T7 RNAP PACE variant L2-108.2 (mutations only in figure) (bacteriophage T7) (UniProt P00573). The series is described as follows: cell_activity. The note with it: lacZ reporter; relative to starting RNAP on T7 promoter.

As for “TAATACGACTCACTATA (double strand) [T7 promoter]”, the activity is 100%.

“AATTAACCCTCACTAAA (double strand) [T3 promoter]”: the activity is 270%.
